Measurements published in US20170002084A1 (VET THERAPEUTICS, published 2017).
Residue numbers refer to the chain shown, from its start. Read-outs that look alike come from different tables or passages of the source.

Legend:
Canine CD20 [1] = molecular target: T1, Canine CD20 (canine, UniProt Q3C2E2 1-297); assay: FACS on canine PBMC, 2 µg antibody, FITC anti-dog IgG
T1 construct: also called recombinant canine CD20; dog CD20
T1 chain: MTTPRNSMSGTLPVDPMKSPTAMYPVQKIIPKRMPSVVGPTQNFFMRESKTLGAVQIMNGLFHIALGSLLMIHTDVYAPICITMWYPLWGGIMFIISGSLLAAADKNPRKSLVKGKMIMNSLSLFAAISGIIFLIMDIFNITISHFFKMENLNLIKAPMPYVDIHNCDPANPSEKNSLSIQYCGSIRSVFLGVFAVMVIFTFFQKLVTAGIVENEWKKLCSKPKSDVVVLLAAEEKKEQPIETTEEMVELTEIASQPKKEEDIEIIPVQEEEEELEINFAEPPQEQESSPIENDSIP
Experimental: In the present example, the antibody variants are incubated with the CD20 positive cells and the amount of bound antibody is assessed following incubation with a fluorescent-labeled reporter reagent. The reporter is thereafter measured by FACS.
Briefly, for each assay, one million cells of Peripheral Blood Mononuclear Cell (PBMC) isolated from whole blood from a normal dog by standard techniques were resuspended in FACS buffer (PBS+2% FBS). Two μg of the primary antibody are added to the cells and the samples were incubated at 4° C. for 1 h. The primary antibody is provided as supernatants from transfected cells with recombinant antibody constructs or from purified antibody preparation. The mouse anti-dog CD21 mAb (Serotec) recognizing B-lymphocytes is added to the cells as a control to estimate the percentage of B-lymphocytes in a given sample. One ml of FACS buffer are added and cells are spun down for 3 min at 800×g in Eppendorf microcentrifuge. The cells are washed with 1 mL FACS buffer and spun down again. The secondary antibodies such as fluorescein-isothiocynate (FITC) conjugated goat anti-mouse kappa (mFITC, Jackson ImmunoResearch), or the FITC-conjugated goat anti-dog IgG (H+L) (dFITC, Bethyl Laboratories) are added in 100 μL of FACS buffer supplemented with 1% BSA to appropriate tubes and the tubes were incubated at 4° C. for 30 minutes. The wash steps are repeated. The cells are then resuspended in 500 μL FACS buffer and transferred into 12×75 mm polystyrene test tubes. The cells are analyzed by FACS with a FacScan cytometer using the CellQuest software (Becton-Dickenson). Analysis gates are set on the live lymphocyte population based on typical forward and side scatter characteristics. Several controls are utilized to determine the background fluorescence: (i) one tube of cells is incubated with the FITC-conjugated secondary antibody without the primary antibody, and (ii) one tube of cells is incubated with PBS only.
The overall percentage of B-cell subset in this sample is estimated to be approximately 12% based on the binding of the anti-dog CD21 mab control. The results of Table 3 evidence effective binding of the antibody variants to lymphocytes.

Canine CD20 [2] = molecular target: T1, Canine CD20; assay: cell-based or functional assay
Feline CD20 [3] = molecular target: T2, Feline CD20 (feline); assay: FACS on mammalian cells expressing recombinant feline CD20, antibody 2.5 µg/mL
T2 construct: also called recombinant feline CD20
T2 chain: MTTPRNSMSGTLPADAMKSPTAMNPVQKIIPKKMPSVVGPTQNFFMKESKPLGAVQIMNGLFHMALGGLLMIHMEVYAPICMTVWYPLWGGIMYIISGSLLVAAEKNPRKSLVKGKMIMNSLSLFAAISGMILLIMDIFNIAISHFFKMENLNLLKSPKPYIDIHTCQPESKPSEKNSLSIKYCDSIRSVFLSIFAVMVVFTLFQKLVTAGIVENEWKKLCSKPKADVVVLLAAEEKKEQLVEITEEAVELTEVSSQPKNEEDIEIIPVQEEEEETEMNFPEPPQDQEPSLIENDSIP
Experimental: (§1) In the present example, the antibody variants (2.5 μg/mL) are incubated with mammalian cells expressing the recombinant feline CD20 or canine CD20 or control cells. The amount of bound antibody is assessed by detection with a fluorescent-labeled reporter antibody reagent. Several controls are utilized to determine the background fluorescence: (i) CD20 expressing cells are incubated with the conjugated secondary antibody with an isotype antibody, and (ii) Control cells are incubated with the anti-CD20 antibodies.
(§2) The results reported as mean fluorescence units evidence effective binding of the antibodies CD20-2, CD20-5, and CD20-6 to the recombinant canine CD20 expressed in HEK cells. Only CD20-2 and CD20-5 antibodies bind feline CD20 expressed in mammalian cells.

Canine CD20 [4] = molecular target: T1, Canine CD20; assay: FACS on HEK cells expressing recombinant canine CD20, antibody 2.5 µg/mL
Experimental: as §1, §2

Canine CD20 [5] = molecular target: T1, Canine CD20; assay: FACS on CHO cells expressing recombinant canine CD20
Experimental: The antibody variants of the present invention are compared for their binding affinity to canine CD20. Binding affinity is assessed by measuring binding to the recombinant canine CD20 expressed in CHO cells by FACS analysis as described above.

Feline CD20 [6] = molecular target: T2, Feline CD20; assay: FACS on mammalian cells expressing recombinant feline CD20
Experimental: as §1, §2

Canine CD20 [7] = molecular target: T1, Canine CD20; assay: FACS on CHO cells expressing recombinant canine CD20

B1: VET 135 × VET 260 (antibody)
heavy: QVQLQQSRAELVRPGASVTLSCKPSGYTFTDYEVHWVKQTPVHGLEWIGAIDPETGGTADNQKFKGKAILTADKSSSTAYMELRSLTSEDSAVYYCTNFVDVWGTGTTVTVSSASTTAPSVFPLAPSCGSQSGSTVALACLVSGYFPEPVTVSWNSGSLTSGVHTFPSVLQSSGLYSLSSMVTVPSSRWPSETFTCNVAHPASKTKVDKPVPKRENGRVPRPPDCPKCPAPEMLGGPSVFIFPPKPKDTLLIARTPEVTCVVVDLDPEDPEVQISWFVDGKQMQTAKTQPREEQFNGTYRVVSVLPIGHQDWLKGKQFTCKVNNKALPSPIERTISKARGQAHQPSVYVLPPSREELSKNTVSLTCLIKDFFPPDIDVEWQSNGQQEPESKYRTTPPQLDEDGSYFLYSKLSVDKSRWQRGDTFICAVMHEALHNHYTQKSLSHSPGK
light: DVVMSQSPSSLAVSVGEKVTMSCKSSQSLLYSGNQKNYLAWYQQKPGQSPRLLIYWASTRESGVPDRFTGSGSGTDFTLTISSVKAEDLAVFYCQQYYNYPLTFGAGTKLELKGQPKASPSVTLFPPSSEELGANKATLVCLISDFYPSGVTVAWKADGSPITQGVETTKPSKQSNNKYAASSYLSLTPDKWKSHSSFSCLVTHEGSTVEKKVAPAECS
notes: CD20-2 variable domains on canine constant domains; light chain differs from VET305 (which has the FR4T light chain); also called VET135 x VET260
For B1, the “% Lymphocytes” value (Canine CD20 [1]) was 12.7% and the “Mean Fluorescence” value (Canine CD20 [1]) was 2660.

B2: anti-canine CD20 antibody CD20-2 (VET305) (antibody)
heavy: B1 heavy
light: B1 light with A106G, K109H, E111T, L112V, K113L
notes: also called Mab CD20-2
With B2 the “Reduction (%) of cell proliferation of lymphoma cells” value (“Reduction (%)” below) (Canine CD20 [2]) was 55%, the mean fluorescence units (Feline CD20 [3]) was 2210 mean fluorescence units and the mean fluorescence units (Canine CD20 [4]) was 2340 mean fluorescence units. The Kd (Canine CD20 [5]) was 8.85 nM.

B3: anti-canine CD20 antibody CD20-5 (VET308) (antibody, V domains shown)
VH: QVQLKQSGAELVKPGASVKISCKASGYTFTDYYINWVKQRPGQGLEWIGKIGPRSGSIYYNEKFKGKATLTADKSSSTAYMQLRSLTSEDSAVYFCAVLKWGQGTLVTVSS
VL: not shown
notes: also called Mab CD20-5
In the case of B3, the “Reduction (%)” value (Canine CD20 [2]) is reported as 60.1%, the mean fluorescence units (Feline CD20 [3]) is reported as 2048 mean fluorescence units and the mean fluorescence units (Canine CD20 [4]) is reported as 2770 mean fluorescence units. It also gave a Kd (Canine CD20 [5]) of 1.21 nM.

B4: anti-canine CD20 antibody CD20-6 (VET309) (antibody, V domains shown)
VH: EIQLQQSGAELVRPGASVTLSCKASGYTFTDYEMHWVKQTPVHGLEWIGGIDPETGGTAYNQKFKGKAILTADKSSSTVYMELRSLTSEDSAVYYCTRDYGTSGYWGQGTLVTVSS
VL: DVVVTQTPLSLPVSFGDQVSISCRSSQSLANSYGNTYLSWYLHKPGQSPQLLIYGISNRFSGVPDRFSGSGSGTDFTLKISRVEAEDLGVYFCSQSTHVPWTFGGGTHLTVLG
notes: also called Mab CD20-6
In the case of B4, the binding result (Feline CD20 [6]) is reported as “no binding (tested: 2.5 µg/mL)”, the “Reduction (%)” value (Canine CD20 [2]) is reported as 27.6% and the mean fluorescence units (Feline CD20 [3]) is reported as 60 mean fluorescence units. The mean fluorescence units (Canine CD20 [4]) was 2110 mean fluorescence units and the Kd (Canine CD20 [5]) was 63.4 nM.

B5: VET 135 × VET 257 (antibody, V domains shown)
VH: EIQLQQSGAELVKPGASVKISCKASGYTFTDYYINWVKQRPGQGLEWIGKIGPGSGRTYYNEKFKGKATLTADKSSSTAYIQISSLTSEDSAVYFCAVLSWGQGTTLTVSS
VL: DVVMSQSPSSLAVSVGEKVTMSCKSSQSLLYSGNQKNYLAWYQQKPGQSPRLLIYWASTRESGVPDRFTGSGSGTDFTLTISSVKAEDLAVFYCQQYYNYPLTFGAGTKLELKG
notes: Mixed pairing: CD20-2 light chain with CD20-1 heavy chain; also called VET135 x VET257
In the case of B5, the “% Lymphocytes” value (Canine CD20 [1]) is reported as 8.33% and the “Mean Fluorescence” value (Canine CD20 [1]) is reported as 2500.

B6: VET 133 × VET 260 (antibody, V domains shown)
VH: QVQLQQSRAELVRPGASVTLSCKPSGYTFTDYEVHWVKQTPVHGLEWIGAIDPETGGTADNQKFKGKAILTADKSSSTAYMELRSLTSEDSAVYYCTNFVDVWGTGTTVTVSS
VL: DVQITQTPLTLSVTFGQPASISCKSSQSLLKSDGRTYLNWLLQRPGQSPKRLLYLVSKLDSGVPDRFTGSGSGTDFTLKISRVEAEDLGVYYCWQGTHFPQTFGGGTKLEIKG
notes: Mixed pairing: CD20-1 light chain with CD20-2 heavy chain; also called VET133 x VET260
With B6 the “% Lymphocytes” value (Canine CD20 [1]) was 13.7% and the “Mean Fluorescence” value (Canine CD20 [1]) was 2910.

B7: VET 124 × VET 237 (antibody, V domains shown)
VH: EVQLQQSVAELVRPGASVTLSCKASGYTFTDYEMHWVKQTPVHGLEWIGEIDPETGGTAYNQKFKGKAILTADKSSSTAYMELRSLTSEDSAVYYCTEYAMDYWGQGTLVTVSS
VL: not shown
notes: also called VET124 x VET237
B7 was tested, and the “% Lymphocytes” value (Canine CD20 [1]) was 13% and the “Mean Fluorescence” value (Canine CD20 [1]) was 2660.

B8: anti-canine CD20 antibody CD20-1 (antibody, V domains shown)
VH: B5 VH
VL: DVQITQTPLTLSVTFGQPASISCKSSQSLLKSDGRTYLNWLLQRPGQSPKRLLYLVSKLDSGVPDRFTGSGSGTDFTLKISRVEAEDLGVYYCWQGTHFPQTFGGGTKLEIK
notes: called 'recombinant anti-canine CD20 antibody'; also called Mab CD20-1
Work on B8 yielded a Kd (Canine CD20 [7]) of 1 nM.

B9: VET 133 × VET 257 (antibody, V domains shown)
VH: B5 VH
VL: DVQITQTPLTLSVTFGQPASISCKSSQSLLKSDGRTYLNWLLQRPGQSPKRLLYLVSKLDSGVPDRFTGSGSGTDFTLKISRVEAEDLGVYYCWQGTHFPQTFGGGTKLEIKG
notes: Light chain vector VET133 co-transfected with heavy chain vector VET257 in 293F cells; mouse variable domains on canine constant domains; also called VET133 x VET257
With B9 the “% Lymphocytes” value (Canine CD20 [1]) was 12% and the “Mean Fluorescence” value (Canine CD20 [1]) was 3170.
